Measurements published in patent US20060058231A1 (Xencor, published 2006).
Changes are numbered by the printed parent chain.

T1: BMPRII receptor-Fc fusion (UniProt Q13873 27-151, limits assumed)
T1 construct: BMP receptor-Fc fusion used at 5 ug/mL
T1 sequence (looked up): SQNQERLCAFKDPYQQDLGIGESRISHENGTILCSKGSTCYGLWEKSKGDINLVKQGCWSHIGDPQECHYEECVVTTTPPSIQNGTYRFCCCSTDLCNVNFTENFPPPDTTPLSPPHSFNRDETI

T2: BMPRIb receptor-Fc fusion (UniProt O00238 14-126)
T2 construct: BMP receptor-Fc fusion used at 5 ug/mL; also called ALK-6
T2 sequence (looked up): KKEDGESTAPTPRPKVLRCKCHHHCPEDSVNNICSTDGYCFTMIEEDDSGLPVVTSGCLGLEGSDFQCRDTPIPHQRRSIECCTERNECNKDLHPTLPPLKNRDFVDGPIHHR

B1: BMP-7 variant Q53G (ligand)
chain: STGGKQRSQNRSKTPKNQEALRMASVAENSSSDQRQACKKHELYVSFRDLGWGDWIIAPEGYAAYYCEGECAFPLNSYMNATNHAIVQTLVHFINPETVPKPCCAPTQLNAISVLYFDDSSNVILKKYRNMVVRACGCH
notes: In conditioned media; numbering on mature BMP-7
B2: BMP-7 variant V123G (ligand)
chain: B1 chain with G53Q, V123G
notes: as for B1
B3: BMP-7 variant R129S (ligand)
chain: B1 chain with G53Q, R129S
notes: as for B1
B4: BMP-7 variant V26N (ligand)
chain: B1 chain with V26N, G53Q
notes: as for B1
B5: BMP-7 variant Q53R (ligand)
chain: B1 chain with G53R
notes: as for B1
B6: BMP-7 variant R129K (ligand)
chain: B1 chain with G53Q, R129K
notes: as for B1
B7: BMP-7 variant S77E (ligand)
chain: B1 chain with G53Q, S77E
notes: as for B1
B8: BMP-7 variant S77T (ligand)
chain: B1 chain with G53Q, S77T
notes: as for B1
B9: BMP-7 variant R48Q (ligand)
chain: B1 chain with R48Q, G53Q
notes: as for B1
B10: BMP-7 variant V26G (ligand)
chain: B1 chain with V26G, G53Q
notes: as for B1
B11: BMP-7 variant R134K (ligand)
chain: B1 chain with G53Q, R134K
notes: as for B1
B12: BMP-7 variant R129N (ligand)
chain: B1 chain with G53Q, R129N
notes: as for B1
B13: BMP-7 variant V26E (ligand)
chain: B1 chain with V26E, G53Q
notes: as for B1
B14: BMP-7 variant S77P (ligand)
chain: B1 chain with G53Q, S77P
notes: as for B1
B15: BMP-7 variant R48N (ligand)
chain: B1 chain with R48N, G53Q
notes: as for B1
B16: BMP-7 variant R129D (ligand)
chain: B1 chain with G53Q, R129D
notes: as for B1
B17: BMP-7 variant Q53S (ligand)
chain: B1 chain with G53S
notes: as for B1
B18: BMP-7 variant W52A (ligand)
chain: B1 chain with W52A, G53Q
notes: as for B1
B19: BMP-7 variant R48H (ligand)
chain: B1 chain with R48H, G53Q
notes: as for B1
B20: BMP-7 variant Q53K (ligand)
chain: B1 chain with G53K
notes: as for B1

How the values were obtained:
Experiment in all cases: ELISA-like plate assay, captured BMP-7 from conditioned media, receptor-Fc detection
[1] = target: T1, BMPRII receptor-Fc fusion
[2] = target: T2, BMPRIb receptor-Fc fusion
[3] = target: T3, BMPRIa receptor-Fc fusion (UniProt P36894 24-152, limits assumed)
T3 construct: also called ALK-3

[4] = target: T4, ActRIIa receptor-Fc fusion (UniProt P27037 20-134, limits assumed)
T4 construct: BMP receptor-Fc fusion used at 5 ug/mL
T4 sequence (P27037 20-134 limits assumed): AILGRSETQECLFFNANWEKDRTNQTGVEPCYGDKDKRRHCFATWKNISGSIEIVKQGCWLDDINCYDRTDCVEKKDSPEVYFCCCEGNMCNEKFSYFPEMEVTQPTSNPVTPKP

T3 sequence (P36894 24-152 limits assumed): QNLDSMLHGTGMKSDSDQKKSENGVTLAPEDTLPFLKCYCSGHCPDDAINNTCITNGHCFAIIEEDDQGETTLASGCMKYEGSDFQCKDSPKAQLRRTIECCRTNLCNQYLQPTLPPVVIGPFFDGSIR

Binder | BMPRII binding (relative to wild type = 1.0) [1] | BMPRIb binding (relative to wild type = 1.0) [2] | BMPRIa binding (relative to wild type = 1.0) [3] | ActRIIa binding (relative to wild type = 1.0) [4]
B1 | 1.37 relative to wild type | 3.95 relative to wild type | 3.7 relative to wild type | 0.99 relative to wild type
B2 | 0.22 relative to wild type | 0.17 relative to wild type | 0.67 relative to wild type | 0.53 relative to wild type
B3 | 0.26 relative to wild type | 0.37 relative to wild type | 0.32 relative to wild type | 0.62 relative to wild type
B4 | 0.97 relative to wild type | 1.43 relative to wild type | 1.14 relative to wild type | 1 relative to wild type
B5 | 0.96 relative to wild type | 1.41 relative to wild type | 1.26 relative to wild type | 0.81 relative to wild type
B6 | 0.78 relative to wild type | 0.77 relative to wild type | 0.69 relative to wild type | 1.12 relative to wild type
B7 | 0.98 relative to wild type | 0.94 relative to wild type | 0.81 relative to wild type | 1.17 relative to wild type
B8 | 0.97 relative to wild type | 0.79 relative to wild type | 0.77 relative to wild type | 1.15 relative to wild type
B9 | 0.15 relative to wild type | 0.85 relative to wild type | 1.06 relative to wild type | 0.8 relative to wild type
B10 | 1 relative to wild type | 1.66 relative to wild type | 1.08 relative to wild type | 1.07 relative to wild type
B11 | 0.91 relative to wild type | 1.11 relative to wild type | 1.05 relative to wild type | 1.18 relative to wild type
B12 | 1.4 relative to wild type | 1.03 relative to wild type | 0.89 relative to wild type | 1.1 relative to wild type
B13 | 0.73 relative to wild type | 1.38 relative to wild type | 1.02 relative to wild type | 1.02 relative to wild type
B14 | 0.91 relative to wild type | 0.79 relative to wild type | 0.58 relative to wild type | 1 relative to wild type
B15 | 0.13 relative to wild type | 0.43 relative to wild type | 1.87 relative to wild type | 0.93 relative to wild type
B16 | 1.86 relative to wild type | 1.16 relative to wild type | 0.93 relative to wild type | 1.13 relative to wild type
B17 | 1.26 relative to wild type | 0.68 relative to wild type | 0.66 relative to wild type | 1.04 relative to wild type
B18 | 1.25 relative to wild type | 0.33 relative to wild type | 0.92 relative to wild type | 1.69 relative to wild type
B19 | 0.58 relative to wild type | 3.58 relative to wild type | 3.15 relative to wild type | 1.02 relative to wild type
B20 | 0.14 relative to wild type | 2.03 relative to wild type | 0.7 relative to wild type | 0.73 relative to wild type
